According to patent US20160194394A1 (GOVERNING COUNCIL OF THE UNIVERSITY OF TORONTO, published 2016):

Columns and labels:
Fc control protein [1] = target: T1, Fc control protein; experiment: ELISA, 1ug/ml (20nM) Fab [cont'd]
T1 construct: also called Fc protein; control Fc protein
Method in brief: (§1)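 Plates coated with 2 ug/ml FZD7-Fc or Fc protein were probed with bacterially expressed purified Fabs for 1 h at room temperature in 0.5% BSA/0.05% Tween20/PBS. Bound Fab detected with anti-FLAG-HRP for 45 min, developed with TMB and acid stop, and read as absorbance at 450 nm; n.t. = not tested.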

[2] = target: T2, recombinant Frizzled receptor 7 (FZD7) cysteine-rich domain (CRD) fused to the Fc region of human IgG (human, UniProt O75084 33-185); experiment: ELISA, 1ug/ml (20nM) Fab [cont'd]
Method in brief: as §1

Fc control protein [3] = target: T1, Fc control protein; experiment: ELISA, 10ug/ml (200nM) Fab [cont'd]
Method in brief: as §1

[4] = target: T2, recombinant Frizzled receptor 7 (FZD7) …; experiment: ELISA, 10ug/ml (200nM) Fab [cont'd]
Method in brief: as §1

[5] = target: T3, FZD7 receptor expressed on cells (full-length) (UniProt O75084 33-574, limits assumed); experiment: flow cytometry, 200 nM Fab, FZD7 over-expression line (MDA MB 231) [cont'd]
T3 construct: whole, on cells; MDA MB 231 cells may carry other Frizzled receptors too; also called full-length FZD7 receptor; endogenous receptor on MDA MB 231 cells
Method in brief: (§2)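 EDTA-harvested MDA MB 231 cells, either FZD7-overexpressing or with endogenous receptor, were blocked in 2% FBS/PBS and stained with Fab for 30 min on ice. Detection used anti-F(ab′)₂-APC (1:1000, 15 min on ice), then 1% paraformaldehyde fixation and flow cytometry. Values are percent of cells in positive gates.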

[6] = target: T3, FZD7 receptor expressed on cells …; experiment: flow cytometry, 200 nM Fab, MDA MB 231 [cont'd]
Method in brief: as §2

B1: G9 (Fab)
light: DIQMTQSPSSLSASVGDRVTITCRASQSVSSAVAWYQQKPGKAPKLLIYSASSLYSGVPSRFSGSRSGTDFTLTISSLQPEDFATYYCQQYYYSSPITFGQGTKVEIKRTVAAPSVFIFPPSDSQLKSGTASVVCLLNNFYPREAKVQWKVDNALQSGNSQESVTEQDSKDSTYSLSSTLTLSKADYEKHKVYACEVTHQGLSSPVTKSFNRGECGGS
heavy: EVQLVESGGGLVQPGGSLRLSCAASGFNISYYYIHWVRQAPGKGLEWVAYISPSSGYTSYADSVKGRFTISADTSKNTAYLQMNSLRAEDTAVYYCARGYPVYSWVWSFGAFDYWGQGTLVTVSSASTKGPSVFPLAPSSKSTSGGTAALGCLVKDYFPEPVTVSWNSGALTSGVHTFPAVLQSSGLYSLSSVVTVPSSSLGTQTYICNVNHKPSNTKVDKKVEPKSC
notes: selection round 3; also called Fzd7-R3-G9
B1 was tested, and the “OD 450” value (Fc control protein [1]) was 0.06, the “OD 450” value [2] was 3.12 and the “OD 450” value (Fc control protein [3]) was 0.16. The “OD 450” value [4] was 3.21, the “% population within the positive gate” value [5] was 84.7% and the “% population within the positive gate” value [6] was 6.1%.

B2: B9 (Fab)
light: DIQMTQSPSSLSASVGDRVTITCRASQSVSSAVAWYQQKPGKAPKLLIYSASSLYSGVPSRFSGSRSGTDFTLTISSLQPEDFATYYCQQWWASGVGPFTFGQGTKVEIKRTVAAPSVFIFPPSDSQLKSGTASVVCLLNNFYPREAKVQWKVDNALQSGNSQESVTEQDSKDSTYSLSSTLTLSKADYEKHKVYACEVTHQGLSSPVTKSFNRGECGGS
heavy: EVQLVESGGGLVQPGGSLRLSCAASGFNLYSSSIHWVRQAPGKGLEWVAYISSYYSSTYYADSVKGRFTISADTSKNTAYLQMNSLRAEDTAVYYCARPAMDYWGQGTLVTVSSASTKGPSVFPLAPSSKSTSGGTAALGCLVKDYFPEPVTVSWNSGALTSGVHTFPAVLQSSGLYSLSSVVTVPSSSLGTQTYICNVNHKPSNTKVDKKVEPKSC
notes: selection round 3; also called Fzd7-R3-B9
With B2 the “OD 450” value (Fc control protein [1]) was 0.05, the “OD 450” value [2] was 3.22 and the “OD 450” value (Fc control protein [3]) was 0.06. For the same binder, the “OD 450” value [4] was 3.26, the “% population within the positive gate” value [5] was 91.5% and the “% population within the positive gate” value [6] was 46.7%.

B3: B2 (Fab)
light: DIQMTQSPSSLSASVGDRVTITCRASQSVSSAVAWYQQKPGKAPKLLIYSASSLYSGVPSRFSGSRSGTDFTLTISSLQPEDFATYYCQQSSYSLITFGQGTKVEIKRTVAAPSVFIFPPSDSQLKSGTASVVCLLNNFYPREAKVQWKVDNALQSGNSQESVTEQDSKDSTYSLSSTLTLSKADYEKHKVYACEVTHQGLSSPVTKSFNRGECGGS
heavy: EVQLVESGGGLVQPGGSLRLSCAASGFNLSYSYMHWVRQAPGKGLEWVASIYSSYGYTSYADSVKGRFTISADTSKNTAYLQMNSLRAEDTAVYYCARYYGWAYYYSYFPAWAGGGIDYWGQGTLVTVSSASTKGPSVFPLAPSSKSTSGGTAALGCLVKDYFPEPVTVSWNSGALTSGVHTFPAVLQSSGLYSLSSVVTVPSSSLGTQTYICNVNHKPSNTKVDKKVEPKSC
notes: selection round 3; also called Fzd7-R3-B2
In the case of B3, the “OD 450” value (Fc control protein [1]) is reported as 0.06, the “OD 450” value [2] is reported as 2.92 and the “OD 450” value (Fc control protein [3]) is reported as 0.1. For the same binder, the “OD 450” value [4] was 3.18, the “% population within the positive gate” value [5] was 86.2% and the “% population within the positive gate” value [6] was 15.9%.

B4: D9 (Fab)
light: B3 light
heavy: EVQLVESGGGLVQPGGSLRLSCAASGFNLSYSSMHWVRQAPGKGLEWVASIYSSYSSTSYADSVKGRFTISADTSKNTAYLQMNSLRAEDTAVYYCARGAGYYWWHYYYVHGAMDYWGQGTLVTVSSASTKGPSVFPLAPSSKSTSGGTAALGCLVKDYFPEPVTVSWNSGALTSGVHTFPAVLQSSGLYSLSSVVTVPSSSLGTQTYICNVNHKPSNTKVDKKVEPKSC
notes: selection round 3; also called Fzd7-R3-D9
With B4 the “OD 450” value (Fc control protein [1]) was 0.06, the “OD 450” value [2] was 3.05 and the “OD 450” value (Fc control protein [3]) was 0.09. For the same binder, the “OD 450” value [4] was 3.12, the “% population within the positive gate” value [5] was 80.9% and the “% population within the positive gate” value [6] was 0.7%.
